Target: the molecule itself
Assay: SEC

B1: Methanococcus maripaludis O-phosphoseryl-tRNA:selenocysteinyl-tRNA synthase (SepSecS) (enzyme, UniProt Q6LZM9 1-436, looked up)
chain: MLDFNIEGLIPKNMEKRGELVLNEYLKEIEDVFNHRKIPENGIDDEKIKLFLKFLSMMDTDKDPKSVRIGEREARTYSKIHEELSSGFCHGIGRSGNLVDPQPKASGASIMYALTNKILESFFKQLGLNVHAIATPISTGMSISLCLSAARKKYGSNVVIYPYASHKSPIKAVSFVGMNMRLVETVLDGDRVYVPVEDIENAIKKEIELGNRPCVLSTLTFFPPRNSDDIVEIAKICENYDIPHIINGAYAIQNNYYLEKLKKAFKYRVDAVVSSSDKNLLTPIGGGLVYSTDAEFIKEISLSYPGRASATPVVNTLVSLLSMGSKNYLELVKNQKNSKKLLDELLNDLSKKTGGKFLDVESPIASCISVNSDPVEIAAKLYNLRVTGPRGIKKTDHFGNCYLGTYTHDYIVMNAAIGVRTEDIVNSVSKLEKILL
modifications: selenomethionine-labeled; PLP covalently bound via a Schiff base to Lys278
- stoichiometry N: 4
